According to PMC2744266, “The Ataxia (ax ^J) Mutation Causes Abnormal GABAA Receptor Turnover in Mice” (PLoS Genetics, 2009):

Target: T1, GABAAR α1 subunit, full length, expressed in HEK293 cells (UniProt P62812 28-455)
T1 sequence (looked up): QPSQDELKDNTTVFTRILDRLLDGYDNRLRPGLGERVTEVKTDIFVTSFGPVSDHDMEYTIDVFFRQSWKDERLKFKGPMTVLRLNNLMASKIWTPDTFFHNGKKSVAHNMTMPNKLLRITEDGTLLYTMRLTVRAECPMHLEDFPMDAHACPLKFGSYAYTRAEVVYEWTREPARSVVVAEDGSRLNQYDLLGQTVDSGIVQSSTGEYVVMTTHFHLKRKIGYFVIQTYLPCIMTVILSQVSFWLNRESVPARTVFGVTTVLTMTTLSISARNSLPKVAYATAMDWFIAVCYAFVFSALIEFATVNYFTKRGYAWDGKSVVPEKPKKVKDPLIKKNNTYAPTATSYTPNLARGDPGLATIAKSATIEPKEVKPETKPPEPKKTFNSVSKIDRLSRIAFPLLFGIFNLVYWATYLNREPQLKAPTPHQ
Assay: cell-based or functional assay

B1: Endogenous Usp14 protein derived from mouse brain lysates (enzyme, mouse (endogenous in brain), UniProt Q9JMA1 1-493, looked up)
chain: MPLYSVTVKWGKEKFEGVELNTDEPPMVFKAQLFALTGVQPARQKVMVKGGTLKDDDWGNIKMKNGMTVLMMGSADALPEEPSAKTVFVEDMTEEQLATAMELPCGLTNLGNTCYMNATVQCIRSVPELKDALKRYAGALRASGEMASAQYITAALRDLFDSMDKTSSSIPPIILLQFLHMAFPQFAEKGEQGQYLQQDANECWIQMMRVLQQKLEAIEDDSGRETDSSSAPAVTPSKKKSLIDQYFGVEFETTMKCTESEEEEVTKGKENQLQLSCFINQEVKYLFTGLKLRLQEEITKQSPTLQRNALYIKSSKISRLPAYLTIQMVRFFYKEKESVNAKVLKDVKFPLMLDVYELCTPELQEKMVSFRSKFKDLEDKKVNQQPNANDKNSPPKEIKYEPFSFADDIGSNNCGYYDLQAVLTHQGRSSSSGHYVSWVRRKQDEWIKFDDDKVSIVTPEDILRLSGGGDWHIAYVLLYGPRRVEIMEEESEQ
GABAAR α1-GFP surface membrane levels (surface biotinylation, HEK293 cells expressing GABAAR α1-GFP and GABAAR β3) with the competing peptide mRFP-GABAAR α1(334–346) against mRFP: 2.5 fold
